Laboratory results from patent publication US20180094062A1 (Hoffmann-La Roche, published 2018).

T1: human recombinant HER4 Extracellular Domain (HER4 ECD) (human, UniProt Q15303 26-651)
T1 sequence: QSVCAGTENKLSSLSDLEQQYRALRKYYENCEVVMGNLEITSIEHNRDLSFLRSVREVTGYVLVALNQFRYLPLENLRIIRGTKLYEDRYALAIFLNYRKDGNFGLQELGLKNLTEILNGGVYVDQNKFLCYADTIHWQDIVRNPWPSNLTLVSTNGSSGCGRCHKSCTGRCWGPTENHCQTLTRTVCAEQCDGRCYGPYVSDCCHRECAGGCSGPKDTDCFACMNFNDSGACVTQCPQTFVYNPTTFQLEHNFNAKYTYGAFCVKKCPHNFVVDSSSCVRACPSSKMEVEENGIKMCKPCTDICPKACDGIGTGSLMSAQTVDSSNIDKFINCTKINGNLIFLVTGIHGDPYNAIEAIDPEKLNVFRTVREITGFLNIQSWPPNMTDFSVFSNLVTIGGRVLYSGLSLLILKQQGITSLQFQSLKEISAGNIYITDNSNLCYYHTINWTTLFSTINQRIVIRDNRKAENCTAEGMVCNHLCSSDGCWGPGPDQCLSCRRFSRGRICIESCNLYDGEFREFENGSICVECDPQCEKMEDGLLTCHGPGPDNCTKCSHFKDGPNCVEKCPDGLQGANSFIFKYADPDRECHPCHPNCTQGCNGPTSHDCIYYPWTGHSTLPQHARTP

T2: TtSlyDcas
T2 construct: negative control scaffold without the HER3 β-hairpin
T2 chain: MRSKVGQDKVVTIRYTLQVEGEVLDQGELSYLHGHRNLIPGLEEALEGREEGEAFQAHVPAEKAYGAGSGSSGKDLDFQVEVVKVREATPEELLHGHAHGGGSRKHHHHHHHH

T3: TgSlyDΔIF
T3 construct: negative control scaffold without insert (Thermococcus gammatolerans SlyD); also called TgSlyDAIF
T3 chain: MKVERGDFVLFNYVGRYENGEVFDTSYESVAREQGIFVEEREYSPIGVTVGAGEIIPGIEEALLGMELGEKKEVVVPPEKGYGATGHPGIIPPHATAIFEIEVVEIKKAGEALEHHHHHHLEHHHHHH

T4: TtSlyDcas-Her3
T4 chain: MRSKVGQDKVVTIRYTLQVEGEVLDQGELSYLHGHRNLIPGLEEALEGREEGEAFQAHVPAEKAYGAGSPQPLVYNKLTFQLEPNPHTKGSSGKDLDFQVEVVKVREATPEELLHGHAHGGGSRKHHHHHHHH

T5: TtSlyDcys-Her3
T5 chain: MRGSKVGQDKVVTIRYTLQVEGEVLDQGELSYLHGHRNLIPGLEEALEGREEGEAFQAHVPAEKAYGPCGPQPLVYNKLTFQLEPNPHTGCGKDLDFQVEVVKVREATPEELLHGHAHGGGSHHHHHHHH

T6: TgSlyDser-Her3
T6 chain: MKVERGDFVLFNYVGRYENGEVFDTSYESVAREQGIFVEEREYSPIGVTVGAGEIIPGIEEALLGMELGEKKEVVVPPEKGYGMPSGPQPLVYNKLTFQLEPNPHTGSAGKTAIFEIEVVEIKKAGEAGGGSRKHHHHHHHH

T7: TgSlyDcys-Her3
T7 chain: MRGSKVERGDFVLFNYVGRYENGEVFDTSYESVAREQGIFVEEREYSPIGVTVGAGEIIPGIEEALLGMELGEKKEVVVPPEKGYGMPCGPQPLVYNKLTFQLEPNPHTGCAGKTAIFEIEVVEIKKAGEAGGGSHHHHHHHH

T8: HER1 (EGFR) ECD peptide hairpin, overlapping immobilized 15-mer peptides (human, UniProt P00533 265-283, limits assumed)
T8 construct: domain: peptide hairpin (β-hairpin); CelluSpots 15-mer library; cysteines replaced by serines; also called hairpin motive in EGFR
T8 peptide (looked up): PPLMLYNPTTYQMDVNPEG

T9: HER2 ECD peptide hairpin, overlapping immobilized 15-mer peptides (human, UniProt P04626 269-287, limits assumed)
T9 construct: domain: peptide hairpin (β-hairpin); CelluSpots 15-mer library; cysteines replaced by serines; also called hairpin motive in the HER2 ECD
T9 peptide (looked up): PALVTYNTDTFESMPNPEG


Columns and labels:
SBP-tagged HER3-ECD = biological target: T10, SBP-tagged HER3-ECD (human, UniProt P21860 20-643); test: time-resolved fluorescence, 10 nM Eu-labelled Heregulin-beta on plate-bound SBP-tagged HER3-ECD
T10 construct: not shown: SBP tag
Protocol: On the next day the wells were washed three times with washing buffer (PBS+0.05% Tween-20) and blocked with PBS containing 1% BSA for one hour. After another three washes with washing buffer, 40 μl antibody solution (in Delfia Binding Buffer) was added to each well as a 2× stock of the desired final concentrations (10⁻³ to 10³ nM, alternatively 10⁻⁴ to 10² nM). Immediately […] of 20 nM Europium-labeled Heregulin-beta (PeproTech, Cat. #100-03) was added to achieve a final concentration of 10 nM. The plates were incubated on a shaker at room temperature for two hours. Following three washes with Delfia Wash Buffer, Delfia Enhancement Solution was added and incubated on a shaker for 15 minutes (light protected). Finally, the plates were measured in a Tecan Infinite F200 reader using a time-resolved fluorescence measurement protocol.

[1] = biological target: T11, human recombinant HER3 Extracellular Domain (HER3 ECD) (human, UniProt P21860 20-643); test: ELISA, antigen coated, hybridoma supernatant
T11 construct: 68 kDa; also called human-Her3-ECD
Protocol: (§1) For the ELISA screening an antigen down format was used. […] Hybridoma Supernatant was added to the plates and incubated for 1 h at room temperature. Bound antibody was detected with a HRP-labeled F(ab′)₂ goat anti-mouse Fcγ (Dianova) and ABTS (Roche) was used as a HRP-substrate.
(§2) As negative controls the scaffold proteins TtSlyDcas and TgSlyDΔIF were used.

[2] = biological target: T12, human HER1 Extracellular Domain (HER1 ECD) (human, UniProt P00533 25-645); test: ELISA, antigen coated, hybridoma supernatant
T12 construct: also called EGFR ECD
Protocol: as §1, §2

[3] = biological target: human HER2 Extracellular Domain (HER2 ECD) (human, UniProt P04626 23-652); test: ELISA, antigen coated, hybridoma supernatant
Protocol: as §1, §2

[4] = biological target: T1, human recombinant HER4 Extracellular …; test: ELISA, antigen coated, hybridoma supernatant
Protocol: as §1, §2

TtSlyDcas = biological target: T2, TtSlyDcas; test: ELISA, antigen coated, hybridoma supernatant
Protocol: as §1, §2

TgSlyDΔIF = biological target: T3, TgSlyDΔIF; test: ELISA, antigen coated, hybridoma supernatant
Protocol: as §1, §2

TtSlyDcas-Her3 = biological target: T4, TtSlyDcas-Her3; test: ELISA, antigen coated, hybridoma supernatant
Protocol: as §1, §2

TtSlyDcys-Her3 = biological target: T5, TtSlyDcys-Her3; test: ELISA, antigen coated, hybridoma supernatant
Protocol: as §1, §2

TgSlyDser-Her3 = biological target: T6, TgSlyDser-Her3; test: ELISA, antigen coated, hybridoma supernatant
Protocol: as §1, §2

TgSlyDcys-Her3 = biological target: T7, TgSlyDcys-Her3; test: ELISA, antigen coated, hybridoma supernatant
Protocol: as §1, §2

[5] = biological target: T13, HER1, full length, on transfected HEK293 cells (human, UniProt P00533 25-1210); test: IHC on HEK293 cells transiently transfected with full length HER1
T13 construct: HEK293 transiently transfected with a plasmid coding for full length HER1; also called EGFR
Protocol: (§3) All selected clones were tested for reactivity and specificity in IHC. […] After an additional fixation in formalin overnight the Agarose blocks were embedded in paraffin. Untransfected HEK293 cells were used as negative controls and treated accordingly to the transfected cells. After paraffin embedding 3 μm thin sections were prepared using a microtome. The sections were mounted on glass microscopy slides and dried for 2 h. All further steps of the immunohistochemical staining procedure were carried out using a Ventana Benchmark XT. The slides were dewaxed and antigen retrieval was performed by applying heat for 1 hour. For antigen retrieval the Ventana buffer CC1 was used. The antibodies were used at a concentration of 1 μg/ml. For the detection of bound antibody the Ventana UltraView detection kit was used.

[6] = biological target: T14, HER2, full length, on cells (transfected HEK293, MCF7) (human, UniProt P04626 23-1255); test: IHC on HEK293 cells transiently transfected with full length HER2
Protocol: as §3

[7] = biological target: T15, HER4, full length, on transfected HEK293 cells (human, UniProt Q15303 26-1308); test: IHC on HEK293 cells transiently transfected with full length HER4
Protocol: as §3

[8] = biological target: T13, HER1, full length, on transfected …; test: IHC on fixed transfected HEK293 cells
Protocol: as §3

[9] = biological target: T14, HER2, full length, on cells …; test: IHC on fixed transfected HEK293 cells
Protocol: as §3

[10] = biological target: T15, HER4, full length, on transfected …; test: IHC on fixed transfected HEK293 cells
Protocol: as §3

[11] = biological target: T11, human recombinant HER3 Extracellular …; test: SPR Biacore T200, antibody captured, HER3-ECD as analyte, 37 C
[12] = biological target: T8, HER1 (EGFR) ECD peptide hairpin, …; test: CelluSpots array of overlapping 15-mer peptides
[13] = biological target: T9, HER2 ECD peptide hairpin, overlapping …; test: CelluSpots array of overlapping 15-mer peptides
[14] = biological target: T16, HER3 ECD-HRG complex (Heregulin-activated Her-3 ECD) (human, UniProt P21860 20-643); test: SPR, 90 nM Heregulin*Her-3 ECD complex on captured antibody
T16 construct: receptor-ligand complex made by preincubating HER3 ECD with a five-fold molar excess of Heregulin; also called Heregulin/Her-3 ECD; Heregulin-complexed Her-3 ECD

Row | OD 405 nm [1] [OD] | OD 405 nm [2] [OD] | binding result [2] | OD 405 nm [3] [OD] | binding result [3] | OD 405 nm [4] [OD] | binding result [4] | OD 405 nm (TtSlyDcas) [OD] | OD 405 nm (TgSlyDΔIF) [OD] | OD 405 nm (TtSlyDcas-Her3) [OD] | OD 405 nm (TtSlyDcys-Her3) [OD] | OD 405 nm (TgSlyDser-Her3) [OD] | OD 405 nm (TgSlyDcys-Her3) [OD] | Binder | other results
1 |  |  |  |  |  |  |  |  |  |  |  |  |  | Europium-labeled Heregulin-beta (PeproTech, Cat. #100-03) (ligand, also: europium label, position not given here, bought fragment; also called HRG; Human Heregulin β-1 fragment (as provided from Preprotech)) SHLVKCAEKEKTFCVNGGECFMVKDLSNPSRYLCKCPNEFTGDRCQNYVMASFYKHLGIEFMEAE | binding result (SBP-tagged HER3-ECD): binds
2 | 3.1 | 0.025 | no binding | 0.03 | no binding | 0.03 | no binding | 0.022 | 0.021 | 1.4 | 1.53 | 1.4 | 1.62 | anti-HER3 antibody M-17-07 (antibody, V domains shown, mouse hybridoma clone) VH: EVQLQQSGTVLARPGASVKMSCKASGYSFTSYWIHWVKQRPGQGLEWIGAIYPGNSDTTYNQKFKGKAKLTAVTSASTAYMELSSLTNEDSAVYYCARTGVWTSYYFDYWGQGTTLTVSS VL: DIQMTQSPASLSASVGETVTITCRASENIYSNLAWYQQKQGKSPQLLVYAATNLADGVPSRFSGSGSGTQFSLRINSLQPEDFGSYYCQHFYGTPFTFGTGTKLEIK | binding result [5]: no binding; binding result [6]: no binding; binding result [7]: no binding
3 | 3.06 | 0.022 | no binding | 0.023 | no binding | 0.051 | no binding | 0.022 | 0.022 | 1.31 | 1.53 | 1.66 | 1.37 | anti-HER3 antibody M-17-12 (antibody, V domains shown, mouse hybridoma clone; VH and VL stated identical to those of M-17-02) VH: EVQLQQSGTVLARPGASVKMSCKASGYSFTSYWIHWVKQRPGQGLEWIGAIYPGNSDTTYNQKFKGKAKLTAVTSASTAYMELSSLTNEDSAVYYCARTGVWTSYYFDYWGQGTTLTVSS VL: DIQMTQSPASLSASVGETVTITCRASENIYSNLAWYQQKQGKSPQLLVYAATNLADGVPSRFSGSGSGTQFSLRINSLQPEDFGSYYCQHFYGTPFTFGTGTKLEIK | binding result [8]: no binding (tested: 1 µg/ml); binding result [9]: no binding (tested: 1 µg/ml); binding result [10]: no binding (tested: 1 µg/ml)
4 |  |  |  |  |  |  |  |  |  |  |  |  |  | anti-HER3 antibody MOR09823 (described in WO2012/22814) (antibody, V domains shown) VH: QVQLVESGGGLVQPGGSLRLSCAASGFTFSSYAMSWVRQAPGKGLEWVSVTGAVGRTYYPDSVKGRFTISRDNSKNTLYLQMNSLRAEDTAVYYCARWGDEGFDIWGQGTLVTVSS VL: DIQMTQSPSSLSASVGDRVTITCRASQGISNWLAWYQQKPGKAPKLLIYGASSLQSGVPSRFSGSGSGTDFTLTISSLQPEDFAVYYCQQYSSFPTTFGQGTKVEIKR | Kd [11]: 0.3 nM
5 |  |  |  |  |  |  |  |  |  |  |  |  |  | anti-HER3/HER4 antibody M-05-74 (antibody, V domains shown, also called M-074; M-5-74) VH: QVQLQQSGAELAKPGASVKMSCKTSGYTLTDYWIHWVKQRPGQGLEWIGYINPYTGYTESNQKFKDKATLTADKSSNTAYIQLSSLTSEDSAVYYCARPYYYGDYWGQGTTLTVSS VL: QIVLTQSPAIMSASPGERVTITCSASSSVSYMHWFQQKPGTSPKLLIYSTSNLASGVPARFSGSGSGTSYSLTISRMEAEDAATYYCQQRSSYPFTFGSGTKLEIK | binding result [12]: no binding (tested: 1 µg/mL); binding result [13]: no binding (tested: 1 µg/mL); t½ diss [14]: 18 min
